Patent US5750344A, “Method for selection of biologically active peptide sequences” (priority 1995, dated 1998)

Columns and labels:
[1] = biological target: T1, substance P receptor (Homo sapiens, UniProt P25103); test: Binding of individual phage clones to Sf9 cells expressing substance P receptor (control); conditions: phage clone displaying the peptide
T1 construct: expressed in transfected cells; host or cells: Sf9 insect cells
Method: (§1) 1.) 15mer phage (2.5×10^10) prepared as described above were selected by coincubation with 10^6 Sf9 cells expressing full length uPAR ("fluPAR", day 2 post infection) at room temperature for 60 minutes in Grace's medium with 2% nonfat milk. Binding phage were eluted with 6M urea (pH 2.2), the pH neutralized by adding 2M Tris-HCl, and assayed. The yield of binding phage was 0.0013% (3.3×10^5 pfu). The phage were amplified on solid agar plates as plaques, eluted with Tris-buffered saline, and precipitated with polyethylene glycol.
(§2) 3.) The phage selected in round 2 were reselected on Sf9 cells expressing fluPAR (day 2 post-infection) as described for round 1 (2.8×10^10 phage on 10^6 Sf9 cells). The yield of binding phage from this round was 5.40% (1.5×10^9 pfu), indicating a substantial enrichment in binding phage. Phage from the urea eluate were cloned, and the DNA isolated and sequenced. Binding by individual phage clones was assayed against Sf9 cells expressing fluPAR, and Sf9 cells expressing substance P receptor (as a control).

[2] = biological target: T2, urokinase plasminogen activator receptor (uPAR) (Homo sapiens, UniProt Q03405); test: Binding of individual phage clones to Sf9 cells expressing fluPAR (% recovery); conditions: for % Recovery uPAR: phage clone displaying the peptide, Sf9 cells expressing full length uPAR (fluPAR); for Specificity (uPAR/SPR): ratio of % recovery on uPAR Sf9 cells to % recovery on SPR Sf9 cells
T2 construct: 10^6 Sf9 cells expressing full length uPAR ("fluPAR", day 2 post infection); expressed in transfected cells; host or cells: Sf9 insect cells (baculovirus-infected)
T2 sequence (Q03405 23-335, species assumed): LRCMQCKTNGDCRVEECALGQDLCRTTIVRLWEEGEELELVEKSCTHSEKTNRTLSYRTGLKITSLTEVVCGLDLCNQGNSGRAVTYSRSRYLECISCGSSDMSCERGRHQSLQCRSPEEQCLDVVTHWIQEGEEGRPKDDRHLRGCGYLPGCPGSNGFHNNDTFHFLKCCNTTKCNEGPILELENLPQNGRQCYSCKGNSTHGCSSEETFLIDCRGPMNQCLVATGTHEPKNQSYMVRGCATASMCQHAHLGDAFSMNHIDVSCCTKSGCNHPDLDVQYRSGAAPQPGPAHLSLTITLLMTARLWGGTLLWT
Method: as §1, §2

T1 sequence (P25103 whole entry, species assumed): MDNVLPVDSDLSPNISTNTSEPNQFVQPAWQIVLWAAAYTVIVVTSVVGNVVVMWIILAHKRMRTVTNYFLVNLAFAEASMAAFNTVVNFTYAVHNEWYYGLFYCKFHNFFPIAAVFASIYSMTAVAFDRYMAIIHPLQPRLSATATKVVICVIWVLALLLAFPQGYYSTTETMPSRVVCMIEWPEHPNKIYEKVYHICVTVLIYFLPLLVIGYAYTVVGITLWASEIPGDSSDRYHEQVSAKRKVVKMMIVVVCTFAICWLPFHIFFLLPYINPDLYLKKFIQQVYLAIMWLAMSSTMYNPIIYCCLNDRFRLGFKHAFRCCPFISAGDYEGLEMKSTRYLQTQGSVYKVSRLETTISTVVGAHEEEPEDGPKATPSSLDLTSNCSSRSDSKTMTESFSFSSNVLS

Q: AESSLWRIFSPSALMMS (displayed on phage) was tested. Which “% Recovery SPR” value [1] did it give?
A: 0.070%

Q: What about the “% Recovery uPAR” value [2] of the same sequence?
A: 3.5%

Q: What about the “Specificity (uPAR/SPR)” value [2] of the same sequence?
A: 50

Q: How did the “% Recovery SPR” value [1] turn out when AEPLDLWSLYSLPPLAM (displayed on phage) was run?
A: 0.095%

Q: And the “% Recovery uPAR” value [2]?
A: 6.0%

Q: And the “Specificity (uPAR/SPR)” value [2]?
A: 63

Q: For AEPMPHSLNFSQYLWYT (displayed on phage), which “% Recovery SPR” value [1] is on record?
A: 0.080%

Q: And the “% Recovery uPAR” value [2]?
A: 2.2%

Q: And the “Specificity (uPAR/SPR)” value [2]?
A: 28

Q: AEWHPGLSFGSYLWSKT (displayed on phage) was tested. Which “% Recovery SPR” value [1] did it give?
A: 0.034%

Q: And the “% Recovery uPAR” value [2]?
A: 5.7%

Q: And the “Specificity (uPAR/SPR)” value [2]?
A: 168

Q: What does the source list for AESLPTLTSILWGKESV (displayed on phage)?
A: % Recovery SPR [1]: 0.022%; % Recovery uPAR [2]: 0.5%; Specificity (uPAR/SPR) [2]: 23

Q: With AEMHRSLWEWYVPNQSA (displayed on phage) as the sequence, how does the “% Recovery SPR” value [1] read?
A: 0.040%

Q: And the “% Recovery uPAR” value [2]?
A: 4.2%

Q: What about the “Specificity (uPAR/SPR)” value [2] of the same sequence?
A: 105

Q: “AECLNGGTAVSNKYFSNIHWCN (displayed on phage) [reference compound]” was tested. Which “% Recovery SPR” value [1] did it give?
A: 0.008%

Q: What about the “% Recovery uPAR” value [2] of the same sequence?
A: 6.8%

Q: And the “Specificity (uPAR/SPR)” value [2]?
A: 850

Q: For AESSLWTRYAWPSMPSY (displayed on phage), which “% Recovery SPR” value [1] is on record?
A: 0.260%

Q: And the “% Recovery uPAR” value [2]?
A: 12.1%

Q: And the “Specificity (uPAR/SPR)” value [2]?
A: 47

Q: With AESQTGTLNTLFWNTLR (displayed on phage) as the sequence, how does the “% Recovery SPR” value [1] read?
A: 0.008%

Q: And the “% Recovery uPAR” value [2]?
A: 2.8%

Q: What about the “Specificity (uPAR/SPR)” value [2] of the same sequence?
A: 350

Q: What does the source list for AEPALLNWSFFFNPGLH (displayed on phage)?
A: % Recovery SPR [1]: 0.100%; % Recovery uPAR [2]: 4.7%; Specificity (uPAR/SPR) [2]: 47
